Experimental data as given in patent US20080267971A1 (published 2008).

T1: human Angiopoietin-2 (human, UniProt O15123 19-496)
T1 construct: Mostly bought recombinant protein (R&D Systems 623-AM/CF, 623-AN; biotinylated BT623) or supernatant of transfected 293F cells; also called Ang-2; rhAng-2
T1 sequence: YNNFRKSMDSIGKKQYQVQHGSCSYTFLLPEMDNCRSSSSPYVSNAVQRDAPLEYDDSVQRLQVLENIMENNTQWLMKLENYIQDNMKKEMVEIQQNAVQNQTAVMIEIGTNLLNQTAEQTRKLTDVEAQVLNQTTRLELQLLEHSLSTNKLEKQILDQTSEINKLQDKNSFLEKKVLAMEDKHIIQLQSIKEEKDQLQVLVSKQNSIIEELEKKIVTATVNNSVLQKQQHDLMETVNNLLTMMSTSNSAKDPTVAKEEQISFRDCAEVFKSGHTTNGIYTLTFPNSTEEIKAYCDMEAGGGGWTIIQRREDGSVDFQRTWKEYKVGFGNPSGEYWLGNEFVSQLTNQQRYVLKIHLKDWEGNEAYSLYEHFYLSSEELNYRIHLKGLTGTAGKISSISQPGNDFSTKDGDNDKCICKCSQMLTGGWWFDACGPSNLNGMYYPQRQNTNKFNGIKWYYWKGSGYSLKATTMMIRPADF

T2: mouse Angiopoietin-2 (mouse, UniProt O35608 19-496)
T2 construct: Used as conditioned medium of transfectants; also called mAng-2; mouse Ang-2
T2 sequence: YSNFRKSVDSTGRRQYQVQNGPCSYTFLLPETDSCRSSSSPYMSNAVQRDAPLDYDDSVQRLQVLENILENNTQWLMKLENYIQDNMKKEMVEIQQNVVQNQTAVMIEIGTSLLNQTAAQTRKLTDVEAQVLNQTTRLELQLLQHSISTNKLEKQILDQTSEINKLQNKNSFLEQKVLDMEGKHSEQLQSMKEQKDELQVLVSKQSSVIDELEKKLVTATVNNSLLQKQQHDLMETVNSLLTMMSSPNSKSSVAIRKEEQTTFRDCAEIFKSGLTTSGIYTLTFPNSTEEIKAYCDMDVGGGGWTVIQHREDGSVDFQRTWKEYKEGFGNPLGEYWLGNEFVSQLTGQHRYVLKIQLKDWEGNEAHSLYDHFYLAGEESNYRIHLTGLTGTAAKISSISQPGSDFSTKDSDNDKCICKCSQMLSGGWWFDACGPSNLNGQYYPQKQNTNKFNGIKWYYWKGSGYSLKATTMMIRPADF


What was measured:
human Angiopoietin-2 [1] = molecular target: T1, human Angiopoietin-2; experiment: competition ELISA: biotin-Ang-2 on coated Tie2/Fc
Procedure: 96-well Nunc Immplates™ were coated with 100 μl of recombinant human Tie2/Fc fusion protein (R&D Systems, Inc., Cat. No. 313-TI-100) at 4 μg/ml by incubating overnight at 4° C. The plates were washed four times using Phosphate Buffer Saline (PBS) with a Skan™ Washer 300 station (SKATRON). The wells were blocked by 100 μl of ABX-blocking buffer (0.5% BSA, 0.1% Tween, 0.01% Thimerosal in PBS) for 1 hour.
The plates were incubated at room temperature for two hours before the unbound molecules were washed off. […] After washing twice, the bound Streptavidin was detected by HRP substrate (R&D Systems, Cat. No. DY998). The plates were incubated for 30 minutes before 450 stop solution (100 μl/well, BioFX, Cat# BSTP-0100-01) was added to terminate the reaction. The light absorbance at 450 nm was determined by a Spectramax Plus reader.
Each concentration of the mAb was tested in duplicate. The concentration-response relationship was found by curve fitting using Graphpad Prism™ graphic software (non-linear, Sigmoid curve). The maximal inhibition (efficacy) and IC₅₀ (potency) were calculated by the software.

mouse Angiopoietin-2 [2] = molecular target: T2, mouse Angiopoietin-2; experiment: ELISA on plates coated with conditioned medium of HEK293F/mouse Ang-2 transfectants, mAb titrated, detection with anti-human Fc-HRP
Procedure: The plates were incubated at 4° C. overnight, followed by washing four times using Phosphate Buffer Saline with a Skan Washer 300 station (SKATRON). The wells were blocked by 100 μl of ABX-block buffer (0.5% BSA, 0.1% Tween, 0.01% Thimerosal in PBS) for 1 hour. […] The mAbs and each of their dilutes were tested in duplicate. After washing twice, the bound mAbs were detected by goat anti-human Fc-HPPO-conjugated antibody (Caltag, Code H10507) at 1/1,000 dilution at room temperature for an hour. To set up the detecting chromagenic reaction, 100 μl of TMB substrate (TMB-microwell, BioFX, Cat. No. TMSK-1000-01) was added after washing the wells three times using PBS. The plates were incubated for 30 minutes before 650 stop solution (100 μl/well, BioFX, Cat. No. BSTP-0100-01) was added to terminate the reaction. The light absorbance at […] was determined by a Spectramax Plus reader.

human Angiopoietin-2 [3] = molecular target: T1, human Angiopoietin-2; experiment: high resolution Biacore, 2nd experiment; kd held constant (*)
Procedure: (§1) The mAb was then immobilized on flow cells 1-3 (CM5 Biacore chip) using routine amine coupling, leaving flow cell 4 as the reference flow cell.
(§2) The antibody surfaces were regenerated with a 6-second pulse of 15 mM NaOH after each injection cycle.
(§3) The sample injections alternated with three blank injection cycles. Each surface was regenerated with a 6-second pulse of 15 mM NaOH after each long off-rate injection cycle.

human Angiopoietin-2 [4] = molecular target: T1, human Angiopoietin-2; experiment: high resolution Biacore, mAb immobilized, 2nd experiment
Procedure: as §1, §2, §3

mouse Angiopoietin-2 [5] = molecular target: T2, mouse Angiopoietin-2; experiment: competition ELISA: binding of mouse Ang-2 (culture supernatant) to coated human Tie2/Fc, mAb 3.19.3 titrated, bound Ang-2 detected with polyclonal anti-Ang-2
Procedure: For this purpose, an ELISA plate was coated with 4 μg/ml of hTie2/Fc (R&D Systems, Inc.) at 100 μl/well, and the wells were blocked as routine at 4° C. overnight.
Each concentration of the mAb was tested in triplicate. […] OD650 was determined 30 min after the HRP substrate was added.

human Angiopoietin-2 [6] = molecular target: T1, human Angiopoietin-2; experiment: high resolution Biacore, 1st experiment; kd held constant (*)
Procedure: as §1, §2, §3

human Angiopoietin-2 [7] = molecular target: T1, human Angiopoietin-2; experiment: cell-based or functional assay

EC50 (human Angiopoietin-2 [1]) | Efficacy (ratio of bound Ang-2 with mAb 30 µg/ml versus without) (human Angiopoietin-2 [1]) | binding result (mouse Angiopoietin-2 [2]) | koff (human Angiopoietin-2 [3]) | Kd (human Angiopoietin-2 [4]) | kon (human Angiopoietin-2 [4]) | EC50 (read off the curve) (mouse Angiopoietin-2 [2]) | IC50 (read off the curve) (mouse Angiopoietin-2 [5]) | koff (human Angiopoietin-2 [6]) | EC50, inhibition of Ang-2-induced Tie2 phosphorylation (HEK293F/Tie2, ELISA) (human Angiopoietin-2 [7]) | Binder
2.7 µg/mL | 0.389 ratio | no binding (tested: 100 µg/ml) | – | – | – | – | – | – | – | mAb 5.28.1 (antibody, V domains shown, Human hybridoma IgG (XenoMouse); also called x5.28) VH: EVQLVESGGIVVQPGGSLRLSCAASGFTFDDYTMHWVRQTPGKGLEWVSLISWDGGSTYYADSVKGRFTISRDNSKNSLYLQMNSLRTEDTALYYCAKDIDIAVAGTGFDHWGQGTLVTVSS VL: EIVMTQSPATLSVSPGERATLSCRASQSVTSNLAWYQQKPGQAPRLLIYGALIRATGIPARFSGSGSGTEFTLTISSLQSEDFAVYYCQQYNNWPFTFGPGTKVDIKR
0.798 µg/mL | 0.395 ratio | – | ~1e-06 s⁻¹ | 5.6 pM | 178000 M⁻¹ s⁻¹ | ~1 µg/mL | ~2 µg/mL | ~1e-06 s⁻¹ | 0.006 µg/mL | mAb 3.19.3 (antibody, V domains shown, Human hybridoma IgG (XenoMouse); also called x3.19) VH: QVQLVESGGGVVQPGRSLRLSCAASGFTFTNYGMHWGRQAPGKGLEWVAVISHDGNNKYYVDSVKGRFTISRDNSKNTLYLQMNSLRAEDTAVYYCAREGIDFWSGLNWFDPWGQGTLVTVSS VL: EIVLTQSPGTLSLSPGERATLSCRASQSITGSYLAWYQQKPGQAPRLLICGASSWATGIPDRFSGSGSGTDFTLTISRLEPEDFAVYYCQQYSSSPITFGQGTRLEIKR
0.133 µg/mL | 0.384 ratio | – | – | – | – | – | – | – | 0.008 µg/mL | mAb 5.86.1 (antibody, V domains shown, Human hybridoma IgG (XenoMouse); also called x5.86) VH: QVQLVQSGAEVKKPGASVKVSCKASGYTFTGYHMYWVRQAPGQGLEWLGWINPNSGGTNYAQKFQGRVTMTRDTSISTAYMELSRLRSDDTAVYYCVRDQGIAAAGPFDYWCQGTLVTVSS VL: DIRMTQSPSSLSASVGDRVTITCRASQRISTYLNWYQQKPGKAPKFLIYAASSLQSGVPSRFSGSGSGTDFTLTISSLQPEDFATYYCQQSYTTPFTFGPGTKVDIKR
0.364 µg/mL | 0.232 ratio | – | – | – | – | – | – | – | 0.095 µg/mL | mAb 5.103.1 (antibody, V domains shown, Human hybridoma IgG (XenoMouse); also called 5.103.3; x5.103) VH: QVQLVQSGAEVKKPGASVKVSCKASGYTFTGYYLYWVPQAPGQGLEWMGWISPNSGGTNYAQKFQGRVTMTRDTSISTAYMELSRLRSDDTAVYYCARDQVIAVAGPFDYWAQGTLVTVSS VL: not shown
0.376 µg/mL | 0.364 ratio | – | – | – | – | – | – | – | 0.733 µg/mL | mAb 5.101.1 (antibody, V domains shown, Human hybridoma IgG (XenoMouse); also called x5.101) VH: not shown VL: EIVMTQSPATLSVSPGERATLSCRASQSLISNLAWYQQKPGQAPRLLIFGASTRATGIPARFSGSGSGTEFTLTISSLQSEDFAVYYCHQYNNWWTFGQGTKVEIKR
0.0417 µg/mL | 0.375 ratio | – | – | – | – | – | – | – | 0.043 µg/mL | mAb 3.31.2 (antibody, V domains shown, Human hybridoma IgG (XenoMouse); also called x3.31) VH: EVQLVESGGGLVQPGGSLRLSCAASGFTFSSYWMSWVRQAPGKGLEWVANIKQDGSDKYYVDSVKGRFTISRDNAKNSLYLRMNSLRAEDTAVFYCARDMGSGWFDYWGQGTLVTVSS VL: EVVMTQSPATLSVSPGERATLSCRASQSVGSNLAWYQQKPGQAPRLLIYGASTRATGIPARFSGSGSGTEFTLTISSLQSEDFAVYCCQQYNHWWTFGQGTKVEIKR
0.156 µg/mL | 0.403 ratio | – | – | – | – | – | – | – | 0.016 µg/mL | mAb 5.88.3 (antibody, V domains shown, Human hybridoma IgG (XenoMouse); also called x5.88) VH: EVQMVESGGGLVQPGGSLRLSCAASGFTLRSYWMSWVRQAPGKGLEWVANIKEDGSEKYHVDSVKGRFTISRDNAENSLFLQMSSLRAEDTAVYYCARDMEASAGLFDYWGQGTLVTVSS VL: EIVMTQSPATLSVSPGERAILSCRASQSISSNLAWYQQKPGQAPRLLIYGASTRATGIPARFSGSGSGTEFTLTISSLQSEDFAVYYCQQYNYWWTFGQGTKVEIKR
0.168 µg/mL | 0.388 ratio | – | – | – | – | – | – | – | 0.046 µg/mL | mAb 3.3.2 (antibody, V domains shown, Human hybridoma IgG (XenoMouse); also called 3.3.1; x3.3) VH: EVQLVESGGGLVQPGGSLRLSCAVSGFTFSSYWMSWVRQAPGKGLEWVANIKQDGSEKYYVDSVKGRFTISRDNAKNSLYLQMNSLRAEDTAVYYCARDQGIAVAGPFDYWGQGTLVTVSS VL: EIVMTQSPATLSVSPGERATLSCRASQTVSSDLAWYQQKPGQAPRLLIYGASIRATGIPARFSGSGSGTEFTLTISSLQSEDFAVYSCQQYYNWWTFGQGTKVEIKR
